# Laboratory results from patent US20140087995A1 (published 2014).
# Numbered stars: 1 amine (or outer) side, 2 acyl side, 3 side chain; on linkers, the order of the positions; unused ones are H or OH. Bridge positions count the residues as written; N and C are the ends. Side chains are listed from the residue outwards. Ends that are not written are not given here. * marks the point of attachment. C20 diacid = O=C(O)CCCCCCCCCCCCCCCCCCC(=O)*; γGlu = O=C(O)[C@H](CCC(=O)[*:2])N[*:1]
# B1: N^ε1-[(4S)-4-carboxy-4-[[(4S)-4-carboxy-4-(19-carboxynonadecanoylamino)butanoyl]amino]butanoyl]-[Glu14,Arg17,Pro21,Pro27,His34,Glu35]-h-amylin (peptide)
# peptide: K([γGlu-γGlu-C20 diacid])CNTATCATQRLAEFLRHSSPNFGAIPSSTNVGHETY-NH2
# modifications: disulfide 2-7; N-terminus assumed
# SMILES: CC[C@H](C)[C@H](NC(=O)[C@H](C)NC(=O)CNC(=O)[C@H](Cc1ccccc1)NC(=O)[C@H](CC(N)=O)NC(=O)[C@@H]1CCCN1C(=O)[C@H](CO)NC(=O)[C@H](CO)NC(=O)[C@H](Cc1c[nH]cn1)NC(=O)[C@H](CCCNC(=N)N)NC(=O)[C@H](CC(C)C)NC(=O)[C@H](Cc1ccccc1)NC(=O)[C@H](CCC(=O)O)NC(=O)[C@H](C)NC(=O)[C@H](CC(C)C)NC(=O)[C@H](CCCNC(=N)N)NC(=O)[C@H](CCC(N)=O)NC(=O)[C@@H](NC(=O)[C@H](C)NC(=O)[C@@H]1CSSC[C@H](NC(=O)[C@@H](N)CCCCNC(=O)CC[C@H](NC(=O)CC[C@H](NC(=O)CCCCCCCCCCCCCCCCCCC(=O)O)C(=O)O)C(=O)O)C(=O)N[C@@H](CC(N)=O)C(=O)N[C@@H]([C@@H](C)O)C(=O)N[C@@H](C)C(=O)N[C@@H]([C@@H](C)O)C(=O)N1)[C@@H](C)O)C(=O)N1CCC[C@H]1C(=O)N[C@@H](CO)C(=O)N[C@@H](CO)C(=O)N[C@H](C(=O)N[C@@H](CC(N)=O)C(=O)N[C@H](C(=O)NCC(=O)N[C@@H](Cc1c[nH]cn1)C(=O)N[C@@H](CCC(=O)O)C(=O)N[C@H](C(=O)N[C@@H](Cc1ccc(O)cc1)C(N)=O)[C@@H](C)O)C(C)C)[C@@H](C)O
# B2: N^ε1-[(4S)-4-carboxy-4-[[(4S)-4-carboxy-4-(19-carboxynonadecanoylamino)butanoyl]amino]butanoyl]-[Glu14,Arg17,Pro21,Pro27,Pro34,Arg35]-h-amylin (peptide)
# peptide: K([γGlu-γGlu-C20 diacid])CNTATCATQRLAEFLRHSSPNFGAIPSSTNVGPRTY-NH2
# modifications: disulfide 2-7; N-terminus assumed
# SMILES: CC[C@H](C)[C@H](NC(=O)[C@H](C)NC(=O)CNC(=O)[C@H](Cc1ccccc1)NC(=O)[C@H](CC(N)=O)NC(=O)[C@@H]1CCCN1C(=O)[C@H](CO)NC(=O)[C@H](CO)NC(=O)[C@H](Cc1c[nH]cn1)NC(=O)[C@H](CCCNC(=N)N)NC(=O)[C@H](CC(C)C)NC(=O)[C@H](Cc1ccccc1)NC(=O)[C@H](CCC(=O)O)NC(=O)[C@H](C)NC(=O)[C@H](CC(C)C)NC(=O)[C@H](CCCNC(=N)N)NC(=O)[C@H](CCC(N)=O)NC(=O)[C@@H](NC(=O)[C@H](C)NC(=O)[C@@H]1CSSC[C@H](NC(=O)[C@@H](N)CCCCNC(=O)CC[C@H](NC(=O)CC[C@H](NC(=O)CCCCCCCCCCCCCCCCCCC(=O)O)C(=O)O)C(=O)O)C(=O)N[C@@H](CC(N)=O)C(=O)N[C@@H]([C@@H](C)O)C(=O)N[C@@H](C)C(=O)N[C@@H]([C@@H](C)O)C(=O)N1)[C@@H](C)O)C(=O)N1CCC[C@H]1C(=O)N[C@@H](CO)C(=O)N[C@@H](CO)C(=O)N[C@H](C(=O)N[C@@H](CC(N)=O)C(=O)N[C@H](C(=O)NCC(=O)N1CCC[C@H]1C(=O)N[C@@H](CCCNC(=N)N)C(=O)N[C@H](C(=O)N[C@@H](Cc1ccc(O)cc1)C(N)=O)[C@@H](C)O)C(C)C)[C@@H](C)O
# notes: also called compound 110
# B3: N^ε1-[(4S)-4-carboxy-4-[[(4S)-4-carboxy-4-(19-carboxynonadecanoylamino)butanoyl]amino]butanoyl]-[Glu14,Arg17,Pro21,Pro27,Pro34,Glu35,Pro37]-h-amylin (peptide)
# peptide: K([γGlu-γGlu-C20 diacid])CNTATCATQRLAEFLRHSSPNFGAIPSSTNVGPETP-NH2
# modifications: disulfide 2-7; N-terminus assumed
# SMILES: CC[C@H](C)[C@H](NC(=O)[C@H](C)NC(=O)CNC(=O)[C@H](Cc1ccccc1)NC(=O)[C@H](CC(N)=O)NC(=O)[C@@H]1CCCN1C(=O)[C@H](CO)NC(=O)[C@H](CO)NC(=O)[C@H](Cc1c[nH]cn1)NC(=O)[C@H](CCCNC(=N)N)NC(=O)[C@H](CC(C)C)NC(=O)[C@H](Cc1ccccc1)NC(=O)[C@H](CCC(=O)O)NC(=O)[C@H](C)NC(=O)[C@H](CC(C)C)NC(=O)[C@H](CCCNC(=N)N)NC(=O)[C@H](CCC(N)=O)NC(=O)[C@@H](NC(=O)[C@H](C)NC(=O)[C@@H]1CSSC[C@H](NC(=O)[C@@H](N)CCCCNC(=O)CC[C@H](NC(=O)CC[C@H](NC(=O)CCCCCCCCCCCCCCCCCCC(=O)O)C(=O)O)C(=O)O)C(=O)N[C@@H](CC(N)=O)C(=O)N[C@@H]([C@@H](C)O)C(=O)N[C@@H](C)C(=O)N[C@@H]([C@@H](C)O)C(=O)N1)[C@@H](C)O)C(=O)N1CCC[C@H]1C(=O)N[C@@H](CO)C(=O)N[C@@H](CO)C(=O)N[C@H](C(=O)N[C@@H](CC(N)=O)C(=O)N[C@H](C(=O)NCC(=O)N1CCC[C@H]1C(=O)N[C@@H](CCC(=O)O)C(=O)N[C@H](C(=O)N1CCC[C@H]1C(N)=O)[C@@H](C)O)C(C)C)[C@@H](C)O
# B4: N^ε1-[(4S)-4-carboxy-4-[[(4S)-4-carboxy-4-(19-carboxynonadecanoylamino)butanoyl]amino]butanoyl]-[Glu14,Arg17,Pro21,Pro27,Pro34,Phe37]-h-amylin (peptide)
# peptide: K([γGlu-γGlu-C20 diacid])CNTATCATQRLAEFLRHSSPNFGAIPSSTNVGPNTF-NH2
# modifications: disulfide 2-7; N-terminus assumed
# SMILES: CC[C@H](C)[C@H](NC(=O)[C@H](C)NC(=O)CNC(=O)[C@H](Cc1ccccc1)NC(=O)[C@H](CC(N)=O)NC(=O)[C@@H]1CCCN1C(=O)[C@H](CO)NC(=O)[C@H](CO)NC(=O)[C@H](Cc1c[nH]cn1)NC(=O)[C@H](CCCNC(=N)N)NC(=O)[C@H](CC(C)C)NC(=O)[C@H](Cc1ccccc1)NC(=O)[C@H](CCC(=O)O)NC(=O)[C@H](C)NC(=O)[C@H](CC(C)C)NC(=O)[C@H](CCCNC(=N)N)NC(=O)[C@H](CCC(N)=O)NC(=O)[C@@H](NC(=O)[C@H](C)NC(=O)[C@@H]1CSSC[C@H](NC(=O)[C@@H](N)CCCCNC(=O)CC[C@H](NC(=O)CC[C@H](NC(=O)CCCCCCCCCCCCCCCCCCC(=O)O)C(=O)O)C(=O)O)C(=O)N[C@@H](CC(N)=O)C(=O)N[C@@H]([C@@H](C)O)C(=O)N[C@@H](C)C(=O)N[C@@H]([C@@H](C)O)C(=O)N1)[C@@H](C)O)C(=O)N1CCC[C@H]1C(=O)N[C@@H](CO)C(=O)N[C@@H](CO)C(=O)N[C@H](C(=O)N[C@@H](CC(N)=O)C(=O)N[C@H](C(=O)NCC(=O)N1CCC[C@H]1C(=O)N[C@@H](CC(N)=O)C(=O)N[C@H](C(=O)N[C@@H](Cc1ccccc1)C(N)=O)[C@@H](C)O)C(C)C)[C@@H](C)O
# Biological target: T1, human calcitonin receptor (human, UniProt P30988 25-474)
# T1 construct: whole, on cells; Membranes of BHK cells stably transfected with the human calcitonin receptor (Assay VII); also called hCTR; hCT
# T1 sequence (looked up): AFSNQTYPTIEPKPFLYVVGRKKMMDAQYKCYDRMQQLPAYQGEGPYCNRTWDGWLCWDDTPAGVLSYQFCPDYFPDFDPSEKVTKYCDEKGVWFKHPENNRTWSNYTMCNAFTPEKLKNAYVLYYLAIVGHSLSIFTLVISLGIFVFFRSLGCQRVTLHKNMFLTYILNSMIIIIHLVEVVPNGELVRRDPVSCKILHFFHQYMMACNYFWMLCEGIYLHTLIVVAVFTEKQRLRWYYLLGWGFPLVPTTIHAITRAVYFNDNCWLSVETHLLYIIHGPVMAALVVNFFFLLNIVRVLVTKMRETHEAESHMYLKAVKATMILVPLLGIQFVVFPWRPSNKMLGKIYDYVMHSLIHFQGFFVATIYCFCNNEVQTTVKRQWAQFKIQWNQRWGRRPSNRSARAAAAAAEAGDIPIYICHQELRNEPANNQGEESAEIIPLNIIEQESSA
# Assay: ratio of IC50 at hCTR over IC50 at hAmylin-R (SPA competition assays)
# Summary of the method: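 Competition binding by SPA uses membrane preparations (35 ng/μL final) in pH 7.4 Hepes buffer with 1 mM CaCl2 and 5 mM MgCl₂. Incubation lasts 120 min at 25° C, and IC₅₀ comes from one-site fitting.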
row,Binder,Ratio hCT/hAmylin binding
1,B1,29.1
2,B2,53.6
3,B3,0.4
4,K([γGlu-γGlu-C20 diacid])CNTATCATQRLAEFLRHSSPNFGAIPSSTNVGPHTY-NH2 (disulfide 2-7 (inferred)),27.3
5,B4,18
6,K([γGlu-γGlu-C20 diacid])CNTATCATQRLAEFLRHSSPNFGAILSSTPVGPETY-NH2 (disulfide 2-7 (inferred)),22.6

# Biological target: T1, human calcitonin receptor
# Assay: SPA competition against 125I-calcitonin, membranes of BHK cells with human calcitonin receptor (Assay VII)
# Summary of the method: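 BHK hCTR membranes 35 ng/μL + SPA beads 0.05 mg/well; buffer 50 mM Hepes pH 7.4, 1 mM CaCl2, 5 mM MgCl₂, 0.1% OA, 0.02% Tween20. 120 min, 25° C., shaking. Scintillation count; IC50 by one-site binding competition.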
row,Binder,IC50 [nM]
1,B1,15.2
2,B2,17.5
3,B3,0.226
4,K([γGlu-γGlu-C20 diacid])CNTATCATQRLAEFLRHSSPNFGAIPSSTNVGPHTY-NH2 (disulfide 2-7 (inferred)),10.3
5,B4,2.73
6,K([γGlu-γGlu-C20 diacid])CNTATCATQRLAEFLRHSSPNFGAILSSTPVGPETY-NH2 (disulfide 2-7 (inferred)),1.56
